These results are taken from patent publication US12391919B2, “Culture medium, coating matrix and method for maturing midbrain dopaminergic progenitor cells” (NUWACELL BIOTECHNOLOGIES CO., LTD., priority 2022, dated 2025).

The assay relates to imDAPs. In words: imDAP maturation: cell morphology, adhesion and cell yield. The assay is classed as cell-based, human. To be noted: Example 13; maturation media supplemented with 10 μM Y27632; day 7; FIG. 8A. The protocol:
imDAPs were produced according to the method described in CN201910169525.0, and expanded as described in Example 10. […] MM-H used in Example 11 contained the following components: Neurobasal™ medium, 1% (v/v) Glutamax, 0.5 mM Db-cAMP sodium salt, 200 μM ascorbic acid, 20 ng/ml BDNF, 20 ng/ml GDNF, 1 ng/ml TGF-β3, 10 μM DAPT, HhPLT (0.5%, 1%, 2%). MM-B used in Example 11 contained the following components: Neurobasal, 1% (v/v) Glutamax, 0.5 mM Db-cAMP sodium salt, 200 μM ascorbic acid, 20 ng/ml BDNF, 20 ng/ml GDNF, 1 ng/ml TGF-β3, 10 μM DAPT, 2% (v/v) B27 (50×) (as control). The above HhPLT was produced from hPLT as follows. The hPLT was centrifuged at 3000 g for 30 min at 4° C. to obtain the supernatant, which was heated to 56° C. for 30 min. The suspension was finally cooled down to 4° C. at least 5 min, and spun at 3000 g for 30 min at 4° C. to obtain the HhPLT supernatant. Aliquots were prepared and stored at −80° C. until use. The above Medium was changed every 3rd day. On day 7, the imDAPs at early maturation stage were dissociated enzymatically with 1× TrypLE, centrifuged at 250 g for 5 minutes.
imDAPs were produced according to the method described in CN201910169525.0, and expanded as described in Example 10. […] Medium was changed every 3rd day. On day 7, the imDAPs at early maturation stage were dissociated enzymatically with 1× TrypLE, centrifuged at 250 g for 5 minutes. Cells were collected for RT-qPCR analysis of EN1, LMX1A, FOXA2, NURR1, SOX6 and TH gene expression. The maturation medium used in Example 12 contained the following components: Neurobasal™ medium, 1% (v/v) Glutamax, 1% (v/v) HhPLT, 0.5 mM Db-cAMP sodium salt, 200 μM ascorbic acid, 20 ng/mL BDNF, 20 ng/mL GDNF, 1 ng/mL TGF-β3, 10 μM DAPT.
imDAPs were produced according to the method described in CN201910169525.0, and expanded as described in Example 10. […] Cells were collected and counted by Vi-cell cytometer. The cells were analyzed by RT-qPCR for EN1, LMX1A, FOXA2, NURR1, SOX6 and TH gene expression. […]

B1: VTN: vitronectin, first coating matrix that supports cell adhesion (protein, UniProt P04004 20-478, looked up)
Vitronectin: DQESCKGRCTEGFNVDKKCQCDELCSYYQSCCTDYTAECKPQVTRGDVFTMPEDEYTVYDDGEEKNNATVHEQVGGPSLTSDLQAQSKGNPEQTPVLKPEEEAPAPEVGASKPEGIDSRPETLHPGRPQPPAEEELCSGKPFDAFTDLKNGSLFAFRGQYCYELDEKAVRPGYPKLIRDVWGIEGPIDAAFTRINCQGKTYLFKGSQYWRFEDGVLDPDYPRNISDGFDGIPDNVDAALALPAHSYSGRERVYFFKGKQYWEYQFQHQPSQEECEGSSLSAVFEHFAMMQRDSWEDIFELLFWGRTSAGTRQPQFISRDWHGVPGQVDAAMAGRIYISGMAPRPSLAKKQRFRHRNRKGYRSQRGHSRGRNQNSRRPSRATWLSLFSSEESNLGANNYDDYRMDWLVPATCEPIQSVFFFSGDKYYRVNLRTRRVDTVDPPYPRSIAQYWLGCPAPGHL
Take B1: the “cell adhesion and growth” value is recorded as “could grow normally”.
